The text below walks through data of US8329178B2.

Holding throughout (experiment): FACS, 293T cells expressing CXCR4 variants
(In flow cytometry, cells or beads pass a laser one at a time.)

The target of one test is ΔN25-CXCR4 (human) (UniProt P61073).
Test [1] concerns the target CXCR2/CXCR4 chimera 2444b (human) (UniProt P61073).
The target of another test is ΔN31-CXCR4 (human) (UniProt P61073).
The target of test [2] is CXCR2/CXCR4 chimera 2442 (human) (UniProt P61073).

Sequence of ΔN25-CXCR4 (human) (P61073 26-352, stated change not applied): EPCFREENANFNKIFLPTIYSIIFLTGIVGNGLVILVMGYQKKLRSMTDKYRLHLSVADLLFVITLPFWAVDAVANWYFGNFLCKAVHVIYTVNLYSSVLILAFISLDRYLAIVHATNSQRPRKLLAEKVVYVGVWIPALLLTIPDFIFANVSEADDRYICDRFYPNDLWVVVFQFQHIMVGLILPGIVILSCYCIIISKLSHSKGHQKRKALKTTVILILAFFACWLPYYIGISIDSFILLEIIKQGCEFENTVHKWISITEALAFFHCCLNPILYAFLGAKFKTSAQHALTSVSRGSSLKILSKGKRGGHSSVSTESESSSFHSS
Sequence of ΔN31-CXCR4 (human) (P61073 32-352, stated change not applied): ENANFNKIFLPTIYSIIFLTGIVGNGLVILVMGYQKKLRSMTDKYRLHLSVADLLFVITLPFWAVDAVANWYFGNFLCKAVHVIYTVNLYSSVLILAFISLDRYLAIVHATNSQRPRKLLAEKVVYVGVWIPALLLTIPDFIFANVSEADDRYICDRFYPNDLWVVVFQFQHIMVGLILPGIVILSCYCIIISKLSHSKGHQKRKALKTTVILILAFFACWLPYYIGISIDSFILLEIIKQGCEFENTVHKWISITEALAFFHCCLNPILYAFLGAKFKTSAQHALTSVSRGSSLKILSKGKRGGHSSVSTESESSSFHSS

B1: 33-IgG1 (antibody, V domains shown)
VH: QVTLKESGGGVVQPGRSLRLSCAASGFTFTNYGLHWVRQAPGKGLEWVAVISHDGTKKYYADSVKGRFTISRDSSENTLYLQMNSLRPEDSALYYCARDGGYCSGGRCYSYGMDVWGQGTTVTVSS
VL: QSVLTQPPSASGTPGQRVTISCSGSRSNIGSNTVNWYQQLPGTAPKLLIYTNNQRPSGVPDRFSGSKSGTSASLAITGLQAEDEADYYCLSFDSSLTSYVFGTGTKVTVLG
As to B1, the binding to cells expressing the variant (+%) with ΔN25-CXCR4 (human) worked out at 13%; in test [1] it was 1%; in the test with ΔN31-CXCR4 (human) it was 9%; in test [2] it was 1.5%.
